Substitutions are numbered along the chain they refer to. In names and notes the source's numbering stands.
B1: β′ mutant R297L (protein)
chain: MKDLLKFLKAQTKTEEFDAIKIALASPDMIRSWSFGEVKKPETINYRTFKPERDGLFCARIFGPVKDYECLCGKYKRLKHRGVICEKCGVEVTQTKVRRERMGHIELASPTAHIWFLKSLPSRIGLLLDMPLRDIERVLYFESYVVIEGGMTNLERQQILTEEQYLDALEEFGDEFDAKMGAEAIQALLKSMDLEQECEQLREELNETNSETKRKKLTKRIKLLEAFVQSGNKPEWMILTVLPVLPPDLRPLVPLDGGRFATSDLNDLYRRVINRNNRLKRLLDLAAPDIIVRNEKLMLQEAVDALLDNGRRGRAITGS
B2: β′ mutant N274P (protein)
chain: B1 chain with N274P, L297R
B3: β′ mutant E301P (protein)
chain: B1 chain with L297R, E301P
B4: β′ mutant R270L (protein)
chain: B1 chain with R270L, L297R
B5: β′ mutant N274D (protein)
chain: B1 chain with N274D, L297R
B6: β′ mutant V272D (protein)
chain: B1 chain with V272D, L297R
B7: β′ mutant E301K (protein)
chain: B1 chain with L297R, E301K
B8: β′ mutant L299D (protein)
chain: B1 chain with L297R, L299D

The proteins below were run against σ70, native, untagged (pLN12), P00579.
σ70, native, untagged (pLN12), P00579, sequence (P00579 whole entry): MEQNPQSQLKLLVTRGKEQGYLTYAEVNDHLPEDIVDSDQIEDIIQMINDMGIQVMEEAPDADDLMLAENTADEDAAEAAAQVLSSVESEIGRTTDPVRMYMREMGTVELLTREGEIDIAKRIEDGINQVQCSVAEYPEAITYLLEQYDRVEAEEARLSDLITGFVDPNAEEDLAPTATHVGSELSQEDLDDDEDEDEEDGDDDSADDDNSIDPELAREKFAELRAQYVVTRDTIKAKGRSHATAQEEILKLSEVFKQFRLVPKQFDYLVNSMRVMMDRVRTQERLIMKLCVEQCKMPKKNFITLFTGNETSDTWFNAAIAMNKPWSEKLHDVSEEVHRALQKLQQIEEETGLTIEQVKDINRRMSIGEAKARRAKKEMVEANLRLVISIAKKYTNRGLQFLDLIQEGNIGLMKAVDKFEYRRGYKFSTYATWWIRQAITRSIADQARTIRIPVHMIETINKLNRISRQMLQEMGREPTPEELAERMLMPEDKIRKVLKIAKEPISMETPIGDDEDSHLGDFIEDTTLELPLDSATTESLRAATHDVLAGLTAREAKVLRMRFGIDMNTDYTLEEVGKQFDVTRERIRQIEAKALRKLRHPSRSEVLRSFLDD

How did the “Growth at 42° C. with plasmid β′ as sole source of β′ (strain RL602)” value (shortened to “Growth at 42° C. with plasmid β′”) turn out when B1 was run?
The value was “-”.

How did the “Growth at 42° C. with plasmid β′” value turn out when B2 was run?
Its value is “-”.

For B3, which “Growth at 42° C. with plasmid β′” value is on record?
Its value is “-”.

Which “Growth at 42° C. with plasmid β′” value does the source give for B4 here?
Its value is “+”.

How did the “Growth at 42° C. with plasmid β′” value turn out when B5 was run?
Its value is “+”.

How did the “Growth at 42° C. with plasmid β′” value turn out when B6 was run?
Its value is “-”.

With B7 as the protein, how does the “Growth at 42° C. with plasmid β′” value read?
The value was “+”.

Which “Growth at 42° C. with plasmid β′” value does the source give for B8 here?
Its value is “-”.

Reference: patent publication US20030104423
